No end group written: not given here.
Tests used:
14-3-3γ = target: T1, 14-3-3γ (Homo sapiens, UniProt P61981); assay: Surface plasmon resonance, 14-3-3γ; format: binding; details: GST fusion captured by anti-GST antibody on chip, phosphorylated on-chip with PKA catalytic subunit; 150 mM NaCl, 20 mM HEPES, 0.005% Tween 20 pH 7.5, 20°C; equilibrium, sigmoidal dose-response fit; ±s.e.m., at least six repeats; read-out: Kd, SPR, 14-3-3γ
T1 construct: Open reading frames encoding human 14-3-3 proteins were inserted into the pMAL2Cx vector at EcoRI and HindIII restriction sites; made in house
T1 sequence (P61981 1-247): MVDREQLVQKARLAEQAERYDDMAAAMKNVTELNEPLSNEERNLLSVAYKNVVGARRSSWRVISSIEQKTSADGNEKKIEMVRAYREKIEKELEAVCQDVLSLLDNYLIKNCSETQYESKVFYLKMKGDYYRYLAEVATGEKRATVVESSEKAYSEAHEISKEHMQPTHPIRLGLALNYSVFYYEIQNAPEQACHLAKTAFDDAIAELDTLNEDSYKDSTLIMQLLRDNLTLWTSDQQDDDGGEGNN
Description: (§1) In addition to fluorescence polarization, we used surface plasmon resonance (SPR) as a second, complementary approach to quantify the binding parameters for the TASK-3 C-terminus (Fig. 3, Table 1). […] We developed an on-chip phosphorylation protocol (Fig. 3A) where we first captured the GST fusion proteins on the chip surface with an antibody against GST (which was crosslinked at a high density to the metal surface) and then phosphorylated GST–TASK-3 with recombinantly expressed PKA catalytic subunit (also known as PRKACA; [Knape et al., 2015]). […] Consistent with the results of fluorescence polarization titration, no binding of 14-3-3 proteins was observed prior to on-chip phosphorylation, whereas all 14-3-3 isoforms did bind upon phosphorylation of the TASK-3 C-terminus (Fig. 3C) with equilibrium dissociation constants (Fig. 3D, Table 1) between 45±9 nM (14-3-3γ) to 742±29 nM (14-3-3σ). Depending on the 14-3-3 isoform, these values were very similar (14-3-3η and 14-3-3τ) or differed two- (14-3-3β) to fivefold (14-3-3ε, 14-3-3ζ and 14-3-3σ) from the values determined by fluorescence polarization (Fig. 2, Table 1). […]
(§2) Fig. 3. Affinities of the seven mammalian 14-3-3 isoforms for the phosphorylated TASK-3 C-terminus obtained by surface plasmon resonance are consistent with values obtained using fluorescence polarization. […]

14-3-3 proteins = assay: Surface plasmon resonance, statements across the 14-3-3 isoforms; format: binding, human; details: SPR, prior to on-chip phosphorylation
Description: as §1, §2

14-3-3σ = target: T2, 14-3-3σ (Homo sapiens, UniProt P31947); assay: Surface plasmon resonance, 14-3-3σ; format: binding; details: GST fusion captured by anti-GST antibody on chip, phosphorylated on-chip with PKA catalytic subunit; 150 mM NaCl, 20 mM HEPES, 0.005% Tween 20 pH 7.5, 20°C; equilibrium, sigmoidal dose-response fit; ±s.e.m., at least six repeats; read-out: Kd, SPR, 14-3-3σ
T2 construct: Open reading frames encoding human 14-3-3 proteins were inserted into the pMAL2Cx vector at EcoRI and HindIII restriction sites; made in house
T2 sequence (P31947 1-248): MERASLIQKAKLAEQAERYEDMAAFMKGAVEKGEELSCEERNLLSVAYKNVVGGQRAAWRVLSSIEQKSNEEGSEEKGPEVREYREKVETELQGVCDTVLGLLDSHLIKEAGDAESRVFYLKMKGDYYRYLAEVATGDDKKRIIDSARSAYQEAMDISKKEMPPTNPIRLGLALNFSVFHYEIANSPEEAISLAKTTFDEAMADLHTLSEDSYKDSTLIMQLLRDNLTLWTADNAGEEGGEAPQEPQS
Description: as §1, §2

Kd (14-3-3γ): 45 ± 9 nM | binding of 14-3-3 proteins (in words) (14-3-3 proteins): no binding | Kd (14-3-3σ): 742 ± 29 nM
Substance: GST–TASK-3-CT15: Glutathione S-transferase fused to the TASK-3 C-terminal 15 residues, from E. coli, phosphorylated on-chip with PKA (SFTDHQRLMKRRKSV; also: GST fusion, end not given here, phosphorylated with PKA, site not given here)
